Measurements reported in publication PMC4479991.

How the values were obtained:
[1] = target: T1, zif268 (EGR1 DNA-binding domain), cleaved (UniProt P08046 333-421); assay: EMSA; up to 1 M KCl; binding saturates at about 1:200 DNA:protein; EMSA: binding on ice, at least 1 h, native PAGE 8% (oligos) or 3.5% (1 kb), salt up to 1 M KCl; nanopore: 1 M KCl, 30 min incubation at 200:1 protein:DNA; pH no
[2] = target: T2, zif268_GST (uncleaved fusion) (UniProt P08046 333-421); assay: EMSA; 1:300 DNA:protein; EMSA: binding on ice, at least 1 h, native PAGE 8% (oligos) or 3.5% (1 kb), salt up to 1 M KCl; nanopore: 1 M KCl, 30 min incubation at 200:1 protein:DNA; pH no
[3] = target: T1, zif268 (EGR1 DNA-binding domain), …; assay: as above
[4] = target: T2, zif268_GST (uncleaved fusion); assay: EMSA; EMSA: binding on ice, at least 1 h, native PAGE 8% (oligos) or 3.5% (1 kb), salt up to 1 M KCl; nanopore: 1 M KCl, 30 min incubation at 200:1 protein:DNA; pH no
[5] = target: T1, zif268 (EGR1 DNA-binding domain), …; assay: as above

B1: Atto-647 50 bp oligo, 1 site (dsDNA)
DNA 1: AGTCTGTTACGCTGGCCTCTGCGTGGGCGAATTCGCATGCGCAACCCCAC
DNA 2: GTGGGGTTGCGCATGCGAATTCGCCCACGCAGAGGCCAGCGTAACAGACT
[1]
  binding result: binds

B2: (+) 50 bp oligo, 2 sites separated by 6 bp (dsDNA)
DNA 1: CAGGCGTGGGCGCTGCAGGCGTGGGCGCC
DNA 2: TCGAGGCGCCCACGCCTGCAGCGCCCACGCCTGGTAC
[2]
  binding result: binds
[3]
  binding result: binds

B3: (-) 50 bp oligo, no site (dsDNA)
DNA 1: CAGTATGCAAATGACTGCAGTATGCAAATGACC
DNA 2: TCGAGGTCATTTGCATACTGCAGTCATTTGCATACTGGTAC
[4]
  binding result: no binding
[5]
  binding result: no binding
